Measured values reported in article PMC7234994, “Structural insights into the inhibition mechanism of human sterol O-acyltransferase 1 by a competitive inhibitor” (Nature Communications, 2020).

B1: N-terminal GFP-tagged full-length human SOAT1 (1-550) (enzyme, UniProt P35610 1-550, looked up)
chain: MVGEEKMSLRNRLSKSRENPEEDEDQRNPAKESLETPSNGRIDIKQLIAKKIKLTAEAEELKPFFMKEVGSHFDDFVTNLIEKSASLDNGGCALTTFSVLEGEKNNHRAKDLRAPPEQGKIFIARRSLLDELLEVDHIRTIYHMFIALLILFILSTLVVDYIDEGRLVLEFSLLSYAFGKFPTVVWTWWIMFLSTFSVPYFLFQHWATGYSKSSHPLIRSLFHGFLFMIFQIGVLGFGPTYVVLAYTLPPASRFIIIFEQIRFVMKAHSFVRENVPRVLNSAKEKSSTVPIPTVNQYLYFLFAPTLIYRDSYPRNPTVRWGYVAMKFAQVFGCFFYVYYIFERLCAPLFRNIKQEPFSARVLVLCVFNSILPGVLILFLTFFAFLHCWLNAFAEMLRFGDRMFYKDWWNSTSYSNYYRTWNVVVHDWLYYYAYKDFLWFFSKRFKSAAMLAVFAVSAVVHEYALAVCLSFFYPVLFVLFMFFGMAFNFIVNDSRKKPIWNVLMWTSLFLGNGVLLCFYSQEWYARQHCPLKNPTFLDYVRPRSWTCRYVF
notes: human sterol O-acyltransferase 1 (SOAT1), full-length, residues 1-550; BacMam vector with N-terminal His7-strep-GFP tags; detected by GFP fluorescence in FSEC; also called hSOAT1; sterol O-acyltransferase 1; source: solubilized in detergent micelles; not shown: GFP, N-terminal, kept
B2: human SOAT1 full-length (1-550), purified, tags removed (enzyme, UniProt P35610 1-550, looked up)
chain: B1 chain
notes: human sterol O-acyltransferase 1 (SOAT1), full-length, residues 1-550; Studied in digitonin/GDN micelles and in MSP2N2 nanodiscs with soybean polar lipids; also called hSOAT1; hSOAT1 tetramer; source: HEK293F, BacMam infected, purified (strep-tactin, PreScission, superose-6); not shown: His7, N-terminal, cleaved; strep, N-terminal, cleaved; GFP, N-terminal, cleaved
B3: N-terminal GFP-tagged N-terminal truncated human SOAT1 (66-550) (domain or fragment, UniProt P35610 66-550, looked up)
chain: MKEVGSHFDDFVTNLIEKSASLDNGGCALTTFSVLEGEKNNHRAKDLRAPPEQGKIFIARRSLLDELLEVDHIRTIYHMFIALLILFILSTLVVDYIDEGRLVLEFSLLSYAFGKFPTVVWTWWIMFLSTFSVPYFLFQHWATGYSKSSHPLIRSLFHGFLFMIFQIGVLGFGPTYVVLAYTLPPASRFIIIFEQIRFVMKAHSFVRENVPRVLNSAKEKSSTVPIPTVNQYLYFLFAPTLIYRDSYPRNPTVRWGYVAMKFAQVFGCFFYVYYIFERLCAPLFRNIKQEPFSARVLVLCVFNSILPGVLILFLTFFAFLHCWLNAFAEMLRFGDRMFYKDWWNSTSYSNYYRTWNVVVHDWLYYYAYKDFLWFFSKRFKSAAMLAVFAVSAVVHEYALAVCLSFFYPVLFVLFMFFGMAFNFIVNDSRKKPIWNVLMWTSLFLGNGVLLCFYSQEWYARQHCPLKNPTFLDYVRPRSWTCRYVF
notes: human sterol O-acyltransferase 1 (SOAT1), residues 66-550 (N-terminal tetramerization domain deleted); also called hSOAT1 dimer; SOAT1-dimer (66-550); source: HEK293F, transfected, solubilized with 1% GDN (supernatant, not purified); not shown: GFP, N-terminal, kept
B4: human SOAT1 dimer construct (66-550), purified, tags removed (domain or fragment, UniProt P35610 66-550, looked up)
chain: B3 chain
notes: human sterol O-acyltransferase 1 (SOAT1), residues 66-550; residues 66-117 invisible in the map; Reconstituted into MSP2X nanodiscs; also called hSOAT1 dimer; hSOAT1 66-550; source: HEK293F, BacMam infected, purified (strep-tactin, PreScission, superose-6); not shown: His7, N-terminal, cleaved; strep, N-terminal, cleaved; GFP, N-terminal, cleaved

How the values were obtained:
[1] = target: the molecule itself; test: SEC; fluorescence-detection SEC (FSEC) of N-terminal GFP-tagged hSOAT1 solubilized in detergent micelles; elution compared with dimeric mouse TPC1 (189 kDa)
[2] = target: the molecule itself; test: cryo-EM structure; hSOAT1 full length in detergent micelles with CI-976; one 3D class refined to 12 Å
[3] = target: the molecule itself; test: cryo-EM structure; hSOAT1 66-550 in nanodisc (MSP2X) with inhibitor CI-976; 3.5 Å, C2 symmetry

| Protein | stoichiometry N [1] | further results |
| --- | --- | --- |
| B1 | 4 | – |
| B2 | – | stoichiometry N [2]: 4 |
| B3 | 2 | – |
| B4 | – | stoichiometry N [3]: 2 |
